Test results published in US20240131207A1, “NUCLIDE-LABELED INHIBITORY PEPTIDE, AND PREPARATION METHOD THEREFOR AND USE THEREOF” (SUZHOU UNIVERSITY, priority 2022, published 2024).
No end group written: not given here. *: point of attachment. DOTA = O=C(O)CN1CCN(CC(=O)O)CCN(CC(=O)*)CCN(CC(=O)O)CC1

What was measured:
B16F10 cells [1] = assay: Growth inhibitory effect of 177Lu-AP1 on B16F10 cells (CCK8); type: cell-based, mice; details: radioactive dose 600 μCi/mL, incubated 24 hours, then 24 hours in normal medium
Protocol: • (1) The B16F10 cells of mice in the logarithmic growth phase were taken and digested by using pancreatin, and the cell concentration was adjusted to 4×10^4 cells/mL; the cells were plated in a 96-well plate at a volume of 100 μL per well, the cell concentration was 4×10^3 cells per well, and the cells were incubated overnight in an incubator at 37° C./5% CO2; • (2) the medium was replaced for each group of cells, 100 μL of culture solution with a specified dosage was added, and ^177LuCl3 and ^177Lu-AP1 with the same dosage concentration were added into two 96-well plates, wherein dosage concentrations were 0, 10, 100, 200, 300, 400, 500 and 600 μCi/mL; after 24 h, the normal culture medium was used to continue culturing; • (3) a culture medium with 10 μL of CCK8 solution (10%) was added at 24 h and 48 h after the normal culture medium was used, and the culture was continued in the incubator for 1 h; • (4) after 1 h, the absorbance at 450 nm of each well was measured using a microplate reader. The relative survival rate of the cells was calculated according to the measured OD value. Cell viability=(material added group−blank group)/(control group−blank group)×100%.

B16F10 cells [2] = details: 0-100 μg/mL
Protocol: (§1) • (1) The skin melanoma B16F10 cells of mice in the logarithmic growth phase were taken and digested by using 0.25% pancreatin, and the cell concentration was adjusted to 6×10^4/mL; the cells were plated in a 96-well plate at a volume of 100 μL per well, the cell concentration was 6×10^3 cells per well, and the cells were incubated overnight in an incubator at 37° C./5% CO2; • (2) the medium was replaced for each group of cells, and 100 μL of a culture solution with a specified concentration was added, wherein the concentration of each dose was 0, 0.5, 1, 5, 10, 20, 50 and 100 μg/mL; after 24 h, a DMEM medium (containing 10% of North American fetal bovine serum and 1% of double antibody) was used, and the culture was continued; • (3) 10 μL of CCK8 solution (10%) was added at 0 h and 24 h after the normal culture medium was used, and the culture was continued in the incubator for 1 h; • (4) after 1 h, the absorbance at 450 nm of each well was measured using a microplate reader. The relative survival rate of the cells was calculated according to the measured OD value. Cell viability=(material added group−blank group)/(control group−blank group)×100%.

in vitro = details: mouse, B16F10 cells
Protocol: as §1

[3] = Stability analysis of 68Ga/177Lu labeled product in PBS by HPLC; type: physicochemical; details: within 24 hours, stability data determined with 177Lu
Protocol: • (1) The HPLC mobile phases were water and acetonitrile (each containing 0.1% TFA), and the gradient was set from 20% to 50% acetonitrile concentration over a period of 30 minutes. • (2) The injection analysis of ^68Ga/^177Lu-AP1 in PBS at different time points (0, 1.5, 3.5, and 24 h) under the same condition is shown in FIG. 2 (identification and purification of ^68Ga/^177Lu-labeled AP1 product) (The radiation peak of the product is mainly the peak of the polypeptide. Since the half-life of ^68Ga is only 68 minutes, and the amount of radiation injected is very small, the stability data is determined by ^177Lu (6.71 days) with a longer half-life).

B16F10 cells [4] = assay: Binding and inhibition assay of B16F10 cells to 68Ga-AP1; type: cell-based, mice; details: 0.11 MBq/mL 68Ga-AP1 with AP1 0-360 μg/mL, 1 h
Protocol: • (1) When the cells grew to more than 90%, the cells were digested with 0.25% pancreatin, the cell concentration was adjusted to 1×10^5 cells/mL, the cells were plated in a 24-well plate, and 0.5 mL of culture medium was added to each well. […] 0.5 mL of 0.11 MBq/mL ^68Ga-AP1 was the source count T. • (5) The radioactivity of the liquid (^68Ga-AP1) detected and collected by the radioimmunotube of each concentration of AP1 was denoted as count B. • (6) The cellular uptake was B/T×100%, and the half inhibitory concentrations were fitted based on different concentrations of AP1. FIGS. 5A-5B show a competitive binding and inhibition experiment between ^68GaAP1 and AP1.

B16F10 cells [5] = system: B16F10 cells
Protocol: Safety of radiolabeled ^68Ga-AP1 imaging probe • (1) The B16F10 cells of mice in the logarithmic growth phase were taken and digested by using 0.25% pancreatin, and the cell concentration was adjusted to 6×10^4 cells/mL; the cells were plated in a 96-well plate at a volume of 100 μL per well, the cell concentration was 6×10^3 cells per well, and the cells were incubated overnight in an incubator at 37° C./5% CO2; • (2) the medium was replaced for each group of cells, 100 μL of a culture solution with a specified concentration was added, and the radioactive doses were taken as 0, 1, 2.5, 10, 25, 50, 100, and 200 μCi/mL; after 12 h, the normal culture medium was used and 10 μL of CCK8 solution (10%) was added, and the culture was continued in an incubator for 1 h; • (3) after 1 h, the absorbance at 450 nm of each well was measured using a microplate reader. The relative survival rate of the cells was calculated according to the measured OD value. Cell viability=(material added group−blank group)/(control group−blank group)×100%.

[6] = B16F10 tumor-bearing mouse, tail vein injection
Protocol: (§2) • (1) The ^68Ga-AP1 imaging probe was used for screening a high expression group and a low expression group of tumor ASF1a, and 20 μCi of ^68Ga-AP1 was injected into the tail vein of each mouse. After 0.5, 1.5, 3.5 and 5.5 h after injection, each important organ was dissected and separated. Each organ weight was measured and calculated as % ID/g=organ radioactivity count/(organ weight×source count)×100% for 3 mice per time point. • (2) Mice were sacrificed at 10 min, 20 min, 30 min, 1.5 h, 3.5 h, 5.5 h respectively after tail vein injection of ^68Ga-AP1, the radioactivity of the organs in the blood of the mice was measured, n=3 was measured at each time point, and the mean value of each time point was taken, and an intravascular two-compartment model was selected to fit hemodynamic parameters using PKSover software.

[7] = mice, tail vein injection, two-compartment model
Protocol: as §2

in vivo = details: mouse, tumor, iv, 20 uCi per mouse, total radioactivity, after 5.5 hours, B16F10 tumor-bearing mouse
Protocol: as §2

[Cl][177Lu]([Cl])[Cl] [^177LuCl3]
cell survival rate after 24 hours (B16F10 cells [1]): 82.19±16.69%

{DOTA}-YGRKKRRQRRRCASTEEKWARLARRIAGAGGVTLDGFGGCA (cysteines drawn unpaired) [AP1]
biocompatibility of the polypeptide (B16F10 cells [2]): good biocompatibility | viability at 24 h, 100 µg/mL (in vitro): 94.7 ± 11% | viability at 48 h, 100 µg/mL (in vitro): 103 ± 5.76%

{DOTA}-YGRKKRRQRRRCASTEEKWARLARRIAGAGGVTLDGFGGCA-OH (N-terminus assumed; cysteines drawn unpaired) [^68Ga-AP1, metal not drawn]
stability of the labeled product [3]: good stability | uptake in B16F10 cells inhibited by AP1 (B16F10 cells [4]): can be specifically uptaken | biocompatibility of the PET/CT imaging probe (B16F10 cells [5]; 0-200 μCi/mL): good biocompatibility | cell survival rate (B16F10 cells [5]; radioactivity at most 200 μCi/mL): 95.31±9.05% | route of metabolism (in vivo biodistribution) [6]: mainly metabolized through liver and kidney | half-discharge time in the blood [7]: 2.1933 h | mean residence time (MRT) in vivo [7]: 3.1643 h | tissue uptake at 5.5 h (in vivo; tumor % ID/g in tumor high-intake group, high-intake group): 18.9 ± 0.248 %ID/g | tissue uptake at 5.5 h (in vivo; tumor % ID/g in tumor low-intake group, low-intake group): 5.24 ± 1.73 %ID/g
